According to the supplement of paper PMC10567573:

B1: ZBED2 (parent)
chain: RAGHHPNQYATCRLCGRQVSRGPG
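Further: lentivirally expressed fusions sorted by FACS into six bins by GFP to DsRed ratio, PSI derived from sequencing read proportions per bin multiplied by bin number.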

Variants of: B1
Assay: protein stability index of a GFP-peptide fusion (GPS, HEK-293T) (PSI 1-6); higher = more stable
Settings: c terminus: a fixed tail appended
For RAGHHPNFYATCRLCGRQVSRGPG, the protein stability index was 2.11.
For RAGHHPNGYATCRLCGRQVSRGPG, the protein stability index was 1.86.
With RAGHHPNHYATCRLCGRQVSRGPG the protein stability index was 1.9.
For RAGHHPNIYATCRLCGRQVSRGPG, the protein stability index was 1.57.
For RAGHHPNKYATCRLCGRQVSRGPG, the protein stability index was 2.78.
With RAGHHPNMYATCRLCGRQVSRGPG the protein stability index was 1.23.
Variant RAGHHPNNYATCRLCGRQVSRGPG has a protein stability index of 1.68.
With RAGHHPNPYATCRLCGRQVSRGPG the protein stability index was 2.03.
Variant RAGHHPNSYATCRLCGRQVSRGPG has a protein stability index of 1.05.
In the case of RAGHHPNYYATCRLCGRQVSRGPG, the protein stability index is reported as 1.13.
With RAGHHPNQAATCRLCGRQVSRGPG the protein stability index was 2.33.
Work on RAGHHPNQFATCRLCGRQVSRGPG yielded a protein stability index of 1.67.
RAGHHPNQHATCRLCGRQVSRGPG showed a protein stability index of 2.28.
In the case of RAGHHPNQIATCRLCGRQVSRGPG, the protein stability index is reported as 2.06.
RAGHHPNQLATCRLCGRQVSRGPG showed a protein stability index of 1.6.
In the case of RAGHHPNQNATCRLCGRQVSRGPG, the protein stability index is reported as 2.33.
Variant RAGHHPNQPATCRLCGRQVSRGPG has a protein stability index of 3.34.
Variant RAGHHPNQSATCRLCGRQVSRGPG has a protein stability index of 2.72.
With RAGHHPNQYCTCRLCGRQVSRGPG the protein stability index was 2.67.
For RAGHHPNQYDTCRLCGRQVSRGPG, the protein stability index was 1.79.
Variant RAGHHPNQYETCRLCGRQVSRGPG has a protein stability index of 1.6.
RAGHHPNQYFTCRLCGRQVSRGPG showed a protein stability index of 2.67.
RAGHHPNQYGTCRLCGRQVSRGPG showed a protein stability index of 2.12.
For RAGHHPNQYHTCRLCGRQVSRGPG, the protein stability index was 2.02.
For RAGHHPNQYITCRLCGRQVSRGPG, the protein stability index was 1.43.
RAGHHPNQYKTCRLCGRQVSRGPG showed a protein stability index of 1.67.
With RAGHHPNQYLTCRLCGRQVSRGPG the protein stability index was 2.12.
RAGHHPNQYMTCRLCGRQVSRGPG showed a protein stability index of 1.8.
With RAGHHPNQYNTCRLCGRQVSRGPG the protein stability index was 1.64.
RAGHHPNQYRTCRLCGRQVSRGPG gave a protein stability index of 1.43.
Work on RAGHHPNQYSTCRLCGRQVSRGPG yielded a protein stability index of 2.2.
For RAGHHPNQYTTCRLCGRQVSRGPG, the protein stability index was 2.78.
RAGHHPNQYVTCRLCGRQVSRGPG showed a protein stability index of 1.43.
In the case of RAGHHPNQYWTCRLCGRQVSRGPG, the protein stability index is reported as 1.76.
In the case of RAGHHPNQYYTCRLCGRQVSRGPG, the protein stability index is reported as 1.34.
In the case of RAGHHPNQYAECRLCGRQVSRGPG, the protein stability index is reported as 2.84.
Variant RAGHHPNQYAFCRLCGRQVSRGPG has a protein stability index of 3.34.
Variant RAGHHPNQYAICRLCGRQVSRGPG has a protein stability index of 2.27.
For RAGHHPNQYAKCRLCGRQVSRGPG, the protein stability index was 2.56.
Work on RAGHHPNQYALCRLCGRQVSRGPG yielded a protein stability index of 1.7.
RAGHHPNQYAMCRLCGRQVSRGPG showed a protein stability index of 3.7.
With RAGHHPNQYANCRLCGRQVSRGPG the protein stability index was 1.97.
For RAGHHPNQYARCRLCGRQVSRGPG, the protein stability index was 2.01.
Variant RAGHHPNQYASCRLCGRQVSRGPG has a protein stability index of 1.5.
RAGHHPNQYAYCRLCGRQVSRGPG gave a protein stability index of 3.09.
RAGHHPNQYATARLCGRQVSRGPG showed a protein stability index of 3.19.
RAGHHPNQYATDRLCGRQVSRGPG showed a protein stability index of 2.88.
In the case of RAGHHPNQYATERLCGRQVSRGPG, the protein stability index is reported as 3.66.
Variant RAGHHPNQYATFRLCGRQVSRGPG has a protein stability index of 1.81.
For RAGHHPNQYATGRLCGRQVSRGPG, the protein stability index was 3.16.
For RAGHHPNQYATHRLCGRQVSRGPG, the protein stability index was 2.49.
Variant RAGHHPNQYATIRLCGRQVSRGPG has a protein stability index of 2.64.
RAGHHPNQYATKRLCGRQVSRGPG gave a protein stability index of 2.4.
Variant RAGHHPNQYATLRLCGRQVSRGPG has a protein stability index of 2.27.
RAGHHPNQYATMRLCGRQVSRGPG gave a protein stability index of 2.28.
In the case of RAGHHPNQYATPRLCGRQVSRGPG, the protein stability index is reported as 2.98.
With RAGHHPNQYATQRLCGRQVSRGPG the protein stability index was 3.12.
With RAGHHPNQYATRRLCGRQVSRGPG the protein stability index was 3.2.
With RAGHHPNQYATSRLCGRQVSRGPG the protein stability index was 3.52.
RAGHHPNQYATTRLCGRQVSRGPG showed a protein stability index of 3.19.
RAGHHPNQYATVRLCGRQVSRGPG showed a protein stability index of 2.49.
RAGHHPNQYATCDLCGRQVSRGPG gave a protein stability index of 1.96.
In the case of RAGHHPNQYATCELCGRQVSRGPG, the protein stability index is reported as 1.9.
For RAGHHPNQYATCFLCGRQVSRGPG, the protein stability index was 1.36.
With RAGHHPNQYATCHLCGRQVSRGPG the protein stability index was 1.59.
With RAGHHPNQYATCILCGRQVSRGPG the protein stability index was 2.09.
In the case of RAGHHPNQYATCKLCGRQVSRGPG, the protein stability index is reported as 2.1.
In the case of RAGHHPNQYATCLLCGRQVSRGPG, the protein stability index is reported as 1.58.
With RAGHHPNQYATCMLCGRQVSRGPG the protein stability index was 2.24.
Variant RAGHHPNQYATCPLCGRQVSRGPG has a protein stability index of 3.18.
For RAGHHPNQYATCQLCGRQVSRGPG, the protein stability index was 1.04.
In the case of RAGHHPNQYATCSLCGRQVSRGPG, the protein stability index is reported as 2.79.
RAGHHPNQYATCTLCGRQVSRGPG showed a protein stability index of 2.4.
Variant RAGHHPNQYATCVLCGRQVSRGPG has a protein stability index of 2.39.
In the case of RAGHHPNQYATCWLCGRQVSRGPG, the protein stability index is reported as 1.98.
Work on RAGHHPNQYATCYLCGRQVSRGPG yielded a protein stability index of 2.42.
RAGHHPNQYATCRACGRQVSRGPG showed a protein stability index of 1.78.
RAGHHPNQYATCRCCGRQVSRGPG showed a protein stability index of 2.79.
RAGHHPNQYATCRGCGRQVSRGPG gave a protein stability index of 2.04.
With RAGHHPNQYATCRHCGRQVSRGPG the protein stability index was 1.75.
For RAGHHPNQYATCRICGRQVSRGPG, the protein stability index was 1.48.
With RAGHHPNQYATCRKCGRQVSRGPG the protein stability index was 2.66.
Variant RAGHHPNQYATCRNCGRQVSRGPG has a protein stability index of 1.25.
In the case of RAGHHPNQYATCRPCGRQVSRGPG, the protein stability index is reported as 1.82.
In the case of RAGHHPNQYATCRQCGRQVSRGPG, the protein stability index is reported as 1.15.
With RAGHHPNQYATCRRCGRQVSRGPG the protein stability index was 2.39.
In the case of RAGHHPNQYATCRSCGRQVSRGPG, the protein stability index is reported as 1.57.
For RAGHHPNQYATCRTCGRQVSRGPG, the protein stability index was 1.49.
RAGHHPNQYATCRVCGRQVSRGPG showed a protein stability index of 1.07.
Work on RAGHHPNQYATCRWCGRQVSRGPG yielded a protein stability index of 2.12.
With RAGHHPNQYATCRLAGRQVSRGPG the protein stability index was 1.4.
RAGHHPNQYATCRLDGRQVSRGPG gave a protein stability index of 3.55.
In the case of RAGHHPNQYATCRLFGRQVSRGPG, the protein stability index is reported as 1.7.
RAGHHPNQYATCRLGGRQVSRGPG showed a protein stability index of 2.6.
